Measurements taken from patent US20150197571A1.
Blank lines part the entries; values can stand above or below the substance they belong to.

Assays:
[1] = target: human PD-L1 expressed on 300.19 cells (human) (UniProt Q9NZQ7); assay: FACS blockade, B7-1-hIgG on 300-hPD-L1 cells, mAb 20 ug/ml
[2] = target: human PD-L1 expressed on 300.19 cells (human) (UniProt Q9NZQ7); assay: FACS blockade, B7-1-hIgG on 300-hPD-L1 cells, mAb 0.078 ug/ml
[3] = target: human PD-L1 expressed on 300.19 cells (human) (UniProt Q9NZQ7); assay: FACS blockade, B7-1-hIgG on 300-hPD-L1 cells, mAb 0.0195 ug/ml
[4] = target: human PD-L1 expressed on 300.19 cells (human) (UniProt Q9NZQ7); assay: FACS blockade, B7-1-hIgG on 300-hPD-L1 cells, mAb '0.0.39' [sic] ug/ml
[5] = target: human PD-L1 expressed on 300.19 cells (human) (UniProt Q9NZQ7); assay: FACS on hPD-L1 300 cells, antibody 1 ug/ml
[6] = target: T1, human PD-L2 expressed on 300.19 cells (human) (UniProt Q9BQ51); assay: FACS on hPD-L2 300 cells, antibody 1 ug/ml
T1 sequence: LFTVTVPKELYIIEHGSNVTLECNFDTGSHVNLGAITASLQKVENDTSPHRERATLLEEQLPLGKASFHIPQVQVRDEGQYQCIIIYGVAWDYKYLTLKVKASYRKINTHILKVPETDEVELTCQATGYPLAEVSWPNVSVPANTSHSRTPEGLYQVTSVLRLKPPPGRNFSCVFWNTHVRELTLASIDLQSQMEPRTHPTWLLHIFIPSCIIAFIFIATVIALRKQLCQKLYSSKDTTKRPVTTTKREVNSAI

[7] = target: human PD-L1 expressed on 300.19 cells (human) (UniProt Q9NZQ7); assay: FACS on 300.19 cells expressing human PD-L1
[8] = target: T1, human PD-L2 expressed on 300.19 cells (human); assay: FACS on 300.19 cells expressing human PD-L2
[9] = target: human PD-L1 expressed on 300.19 cells (human) (UniProt Q9NZQ7); assay: FACS on hPD-L1 300 cells, antibody 10 ug/ml
[10] = target: T1, human PD-L2 expressed on 300.19 cells (human); assay: FACS on hPD-L2 300 cells, antibody 10 ug/ml
[11] = target: human PD-L1 expressed on 300.19 cells (human) (UniProt Q9NZQ7); assay: FACS on hPD-L1 300 cells, antibody 0.1 ug/ml
[12] = target: T1, human PD-L2 expressed on 300.19 cells (human); assay: FACS on hPD-L2 300 cells, antibody 0.1 ug/ml
[13] = target: human PD-L1 expressed on 300.19 cells (human) (UniProt Q9NZQ7); assay: FACS blockade, PD-1-hIgG1 on PD-L1 300.19 cells
[14] = target: T1, human PD-L2 expressed on 300.19 cells (human); assay: FACS blockade, PD-1-hIgG1 on PD-L2 300.19 cells
[15] = target: human PD-L1 expressed on 300.19 cells (human) (UniProt Q9NZQ7); assay: FACS blockade, B7-1-hIgG on 300-hPD-L1 cells, mAb 5 ug/ml
[16] = target: human PD-L1 expressed on 300.19 cells (human) (UniProt Q9NZQ7); assay: FACS blockade, B7-1-hIgG on 300-hPD-L1 cells, mAb 10 ug/ml
[17] = target: human PD-L1 expressed on 300.19 cells (human) (UniProt Q9NZQ7); assay: FACS competition, PD-1-Ig on hPD-L1 300 cells, mAb 10 ug/ml
[18] = target: human PD-L1 expressed on 300.19 cells (human) (UniProt Q9NZQ7); assay: FACS competition, PD-1-Ig on hPD-L1 300 cells, mAb 90 ug/ml
[19] = target: T1, human PD-L2 expressed on 300.19 cells (human); assay: FACS competition, PD-1-Ig on hPD-L2 300 cells, mAb 10 ug/ml
[20] = target: T1, human PD-L2 expressed on 300.19 cells (human); assay: FACS competition, PD-1-Ig on hPD-L2 300 cells, mAb 30 ug/ml
[21] = target: T1, human PD-L2 expressed on 300.19 cells (human); assay: FACS competition, PD-1-Ig on hPD-L2 300 cells, mAb 90 ug/ml
[22] = target: human PD-L1 expressed on 300.19 cells (human) (UniProt Q9NZQ7); assay: FACS blockade, B7-1-hIgG on 300-hPD-L1 cells, mAb 2.5 ug/ml
[23] = target: human PD-L1 expressed on 300.19 cells (human) (UniProt Q9NZQ7); assay: FACS competition, PD-1-Ig on hPD-L1 300 cells, mAb 1.1 ug/ml
[24] = target: human PD-L1 expressed on 300.19 cells (human) (UniProt Q9NZQ7); assay: FACS competition, PD-1-Ig on hPD-L1 300 cells, mAb 3.3 ug/ml
[25] = target: T1, human PD-L2 expressed on 300.19 cells (human); assay: FACS competition, PD-1-Ig on hPD-L2 300 cells, mAb 1.1 ug/ml
[26] = target: T1, human PD-L2 expressed on 300.19 cells (human); assay: FACS competition, PD-1-Ig on hPD-L2 300 cells, mAb 3.3 ug/ml
[27] = target: human PD-L1 expressed on 300.19 cells (human) (UniProt Q9NZQ7); assay: FACS blockade, B7-1-hIgG on 300-hPD-L1 cells, mAb 1.25 ug/ml
[28] = target: human PD-L1 expressed on 300.19 cells (human) (UniProt Q9NZQ7); assay: FACS competition, PD-1-Ig on hPD-L1 300 cells, mAb 0.04 ug/ml
[29] = target: human PD-L1 expressed on 300.19 cells (human) (UniProt Q9NZQ7); assay: FACS competition, PD-1-Ig on hPD-L1 300 cells, mAb 0.37 ug/ml
[30] = target: T1, human PD-L2 expressed on 300.19 cells (human); assay: FACS competition, PD-1-Ig on hPD-L2 300 cells, mAb 0.04 ug/ml
[31] = target: T1, human PD-L2 expressed on 300.19 cells (human); assay: FACS competition, PD-1-Ig on hPD-L2 300 cells, mAb 0.12 ug/ml
[32] = target: T1, human PD-L2 expressed on 300.19 cells (human); assay: FACS competition, PD-1-Ig on hPD-L2 300 cells, mAb 0.37 ug/ml
[33] = target: human PD-L1 expressed on 300.19 cells (human) (UniProt Q9NZQ7); assay: FACS blockade, B7-1-hIgG on 300-hPD-L1 cells, mAb 0.156 ug/ml
[34] = target: human PD-L1 expressed on 300.19 cells (human) (UniProt Q9NZQ7); assay: FACS blockade, B7-1-hIgG on 300-hPD-L1 cells, mAb 0.313 ug/ml
[35] = target: human PD-L1 expressed on 300.19 cells (human) (UniProt Q9NZQ7); assay: FACS blockade, B7-1-hIgG on 300-hPD-L1 cells, mAb 0.625 ug/ml
[36] = target: human PD-L1 expressed on 300.19 cells (human) (UniProt Q9NZQ7); assay: FACS blockade, B7-1-hIgG on 300-hPD-L1 cells, mAb 0.0098 ug/ml

UniProt Q9NZQ7, sequence (Q9NZQ7 19-290): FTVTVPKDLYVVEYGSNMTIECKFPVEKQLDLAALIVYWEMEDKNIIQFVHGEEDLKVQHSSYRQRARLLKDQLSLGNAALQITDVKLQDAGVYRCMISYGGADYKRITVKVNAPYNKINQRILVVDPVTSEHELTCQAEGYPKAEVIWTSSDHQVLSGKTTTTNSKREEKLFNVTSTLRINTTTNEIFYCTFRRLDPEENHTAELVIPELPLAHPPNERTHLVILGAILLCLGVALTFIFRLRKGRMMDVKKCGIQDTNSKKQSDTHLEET

- Mean of PE Signal (bound B7-1-Ig) [1]: 4540
- Mean of PE Signal (bound B7-1-Ig) [2]: 397
- Mean of PE Signal (bound B7-1-Ig) [3]: 3500
- Mean of PE Signal (bound B7-1-Ig) [4]: 4280
Substance: C1.18 mIgG2a control (antibody)

- Mean of PE signal [5]: 183
- Mean of PE signal [6]: 164
- MFI [7]: 45
- MFI [8]: 19
- Mean of PE signal [9]: 263
- Mean of PE signal [10]: 173
- Mean of PE signal [11]: 250
- Mean of PE signal [12]: 149
- MFI of bound PD-1-Ig (inversely proportional to blockage) [13]: 26700
- MFI of bound PD-1-Ig (inversely proportional to blockage) [14]: 19200
- Mean of PE Signal (bound B7-1-Ig) [15]: 3580
- Mean of PE Signal (bound B7-1-Ig) [16]: 3550
- Mean of PE Signal (bound B7-1-Ig) [1]: 3590
- Mean of PE Signal (bound PD-1-Ig) [17]: 12600
- Mean of PE Signal (bound PD-1-Ig) [18]: 11800
- Mean of PE Signal (bound PD-1-Ig) [19]: 52500
- Mean of PE Signal (bound PD-1-Ig) [20]: 54200
- Mean of PE Signal (bound PD-1-Ig) [21]: 53500
- Mean of PE Signal (bound B7-1-Ig) [22]: 3880
- Mean of PE Signal (bound PD-1-Ig) [23]: 13600
- Mean of PE Signal (bound PD-1-Ig) [24]: 11900
- Mean of PE Signal (bound PD-1-Ig) [25]: 58400
- Mean of PE Signal (bound PD-1-Ig) [26]: 52600
- Mean of PE Signal (bound B7-1-Ig) [27]: 3490
- Mean of PE Signal (bound PD-1-Ig) [28]: 13300
- Mean of PE Signal (bound PD-1-Ig) [29]: 13500
- Mean of PE Signal (bound PD-1-Ig) [30]: 60800
- Mean of PE Signal (bound PD-1-Ig) [31]: 59100
- Mean of PE Signal (bound PD-1-Ig) [32]: 60600
- Mean of PE Signal (bound B7-1-Ig) [2]: 4320
- Mean of PE Signal (bound B7-1-Ig) [33]: 3720
- Mean of PE Signal (bound B7-1-Ig) [34]: 3960
- Mean of PE Signal (bound B7-1-Ig) [35]: 3710
- Mean of PE Signal (bound B7-1-Ig) [36]: 4410
- Mean of PE Signal (bound B7-1-Ig) [3]: 4760
- Mean of PE Signal (bound B7-1-Ig) [4]: 3990
Substance: MOPC31C isotype control antibody
